From the supplement of paper PMC12764529
± gives the half width of the 95% confidence interval.

What was measured:
[1] = folding stability dG unfold (combined trypsin and chymotrypsin); higher = more stable
Summary of the method: (§1)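 Designed mini-proteins (under 80 residues, no cysteine) in a PA-tagged cDNA display construct were digested with trypsin and chymotrypsin. Each protease was used at 11 concentrations (threefold dilutions) plus a no-protease condition, followed by sequencing. K50 was inferred by Bayesian fitting of sequencing counts, and unfolding free energy was derived against a sequence-predicted unfolded-state K50 and a shared folded-state K50, per protease or combined. Only designs with AlphaFold2 dimer inter-PAE above 15 were kept.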

[2] = folding stability dG unfold from chymotrypsin proteolysis; higher = more stable
Summary of the method: as §1

[3] = folding stability dG unfold from trypsin proteolysis; higher = more stable
Summary of the method: as §1

Sequence | folding stability dG unfold [1] [kcal/mol] | folding stability dG unfold [2] [kcal/mol] | folding stability dG unfold [3] [kcal/mol]
SAGGSAMPGMTLQELLDAIRALLPPGARARIYVRNPDGEVIELTDLDDITVEDLENAEIRIEIEPVSAGGSA [r15_144_TrROS_Hall] | 3.88 ± 0.076 | 4.01 ± 0.052 | 3.7 ± 0.1
SAKIVIIPLGDKAIIIITDENGKTKTIELPGISKIEIKGDHLKIYDPKTGKLIIPPNWKGKDIIIIPGKSAG [r14_83_TrMRF] | 2.9 ± 0.34 | 3.32 ± 0.59 | 2.25 ± 0.22
SAGGSAGGSKKKPYIIKIYYKDPKTKKKSKKEILVSGKVKNPEKFAKEAAKKLGPVGKVEFKPSAGGSAGGS [r12_942_TrMRF] | 0.537 ± 0.098 | 0.757 ± 0.15 | -0.0324 ± 0.084
SAGGSAGGSAGGSMKNVPVTVEGSSSVVPLPDGSPVTVTELTTTTLGENGEVSTSTTVVSSAGGSAGGSAGG [r11_817_JUSTAS] | 0.905 ± 0.083 | 1.34 ± 0.039 | -0.614 ± 0.07
SAGGSAPFVPPGFVKSVEEFEVTFPDGSKYRVTLIEVDGGPLVLVEKPGVGEPKTLPFEKLLELLASAGGSA [r15_329_TrMRF] | 1.73 ± 0.13 | 1.36 ± 0.075 | 1.88 ± 0.11
SAGGSAGGSAGKKKKKKLVRVRITYKNGKKKEFVFKTKEEAEKALKEEFNIEKIEIEEIPSAGGSAGGSAGG [r17_508_TrROS_Hall] | 3.43 ± 0.16 | 3.66 ± 0.068 | 2.84 ± 0.1
STLTLEELKERFPELSEEELEALAERLAALPAPVTVTVEVRPAPPPPVEERELSEEELLEARLRPGERVESA [r9_1024_TrROS_Hall] | 1.51 ± 0.098 | 1.94 ± 0.056 | 0.624 ± 0.06
SAGGGTYIEIKVTYSDGTTETFTVPAKPEDIETVVKEIEDKLKELGGTITSIKIENGKITIEATIPDSAGGS [r16_662_TrMRF] | 3.06 ± 0.18 | 3.3 ± 0.087 | 2.41 ± 0.19
SAGGSAGGSAGGMTVLETEVTTLPNGVVKTTTLYKDPSTGALHTVTEEVYVPLGETALLSAGGSAGGSAGGS [r10_72_JUSTAS] | 0.523 ± 0.11 | 0.15 ± 0.15 | 0.716 ± 0.022
SEDTVTIEVRAFPVKDKNGKPRFYVSIEFGNGPVSYPIPGLPEGMKEGETFTIEIPPENIKKVDISIMPYSA [r9_769_TrROS] | 1.97 ± 0.19 | 2.09 ± 0.1 | 2.09 ± 0.12
SAGGSAMKPGEPVEFNIMIKIRDPNGKPVGEIDIKVEYPKGQSESQMFDRARNEINNLAPEGHLEISAGGSA [r15_310_TrROS] | 0.396 ± 0.14 | 0.486 ± 0.21 | 0.0892 ± 0.087
SAGGSKIHIPIDPESGNFRIKVYPPDEPKEVSIQFKDPDDPEEFMDRAIEEANEYANNGYRVEIEPSAGGSA [r2_118_TrROS] | -0.668 ± 0.48 | -0.278 ± 0.58 | -0.52 ± 0.3
SAGFEARVLEVVDLGDRRVALFELRDPEEGRYLLAVAVYDPETGLARVELWDPTDGRLVATPVVPVLPLSAG [r5_440_TrMRF] | 2.12 ± 0.066 | 2.36 ± 0.047 | 1.72 ± 0.027
SAGGAEELAKRLAEELREAGYEVEVVKVERLENGEVVITMKVRVVKDGKEVEEREIKLVLKLPEELLSAGGS [r8_102_TrROS_Hall] | 3.98 ± 0.086 | 4.03 ± 0.069 | 3.93 ± 0.097
SAGGSAGGSKKKKKVKYKIKVINPEKPEVKEIEIEAENEEEAKKLAEELAKKYPGVKVEIEKTSAGGSAGGS [r12_601_TrROS_Hall] | 2.48 ± 0.095 | 2.95 ± 0.064 | 1.08 ± 0.07
SAGGGSSYTLLSESTSTDPATGATLTTTTYRAPDGTIYYDSTLTAPDGTTTGTATAVDPDGTPVTIALSAGG [r13_573_JUSTAS] | 1.41 ± 0.1 | 1.39 ± 0.12 | 1.32 ± 0.035

Sequence | folding stability dG unfold [1] [kcal/mol] | folding stability dG unfold [2] [kcal/mol] | folding stability dG unfold [3] [kcal/mol]
SAGKPKIIEEKTITVPPGATLTIEFPPEVKRIEIINLDTGKTETIEIKPGEKLTFTFPPGSTVRVRVLSAGG [r19_118_TrROS_Hall] | 3.65 ± 0.09 | 4.06 ± 0.046 | 2.38 ± 0.029
SAGGSAGGSLKPFPIEDITVQPRRNPDGNRYYQVSIRIKGPGRPINIPFPMDNPKKFLEDIIKSAGGSAGGS [r20_238_TrROS] | 0.285 ± 0.17 | 0.143 ± 0.12 | 0.519 ± 0.081
SAEVETVTLELELPEDGYRVTITVTYNKETGEVTVEIRIINPNGEEKTITIKVKSLEEALKKLEFKLLPSAG [r14_749_TrROS_Hall] | 2.36 ± 0.13 | 2.45 ± 0.054 | 2.13 ± 0.056
SAGSALAAALKLKTYTIKITAPDGTVIELTISYHPSDPEAIKEALAKAGYPPEKLKTENPNLETTEVDASAG [r5_430_JUSTAS] | 1.79 ± 0.16 | 1.83 ± 0.14 | 1.62 ± 0.071
SAGGSAGGMLTFTFSLSEIPPYPSGSLSLEEVKKRMEPILRKLLGRKDVKIKVESLPDGTIRVTVESAGGSA [r15_562_JUSTAS] | 4.37 ± 0.27 | 4.99 ± 0.23 | 3.95 ± 0.25
SAGGSAGGSGMAVSVSVTPVRLPDGSVRLVISFSSGSTVVLDLPESEWTPEQVEALVAELVSASAGGSAGGS [r12_218_JUSTAS] | 3.89 ± 0.058 | 3.9 ± 0.048 | 3.82 ± 0.077
SAGGSAGGSAGGATFKPGETVRVEVEVELRVFKVDEETGEIVEETETVTVRVEVEVRLESAGGSAGGSAGGS [r10_122_TrROS_Hall] | 2.04 ± 0.11 | 2.32 ± 0.053 | 1.87 ± 0.1
SAGGMTLNITVEIPGLGTTITKTFSANPSDYEKIARETEEENPEYKLTSVKVTYSPNSITIDATVELVSAGG [r13_196_JUSTAS] | 2.04 ± 0.21 | 2.38 ± 0.057 | 1.38 ± 0.17
SAGGSAGGSAKEIKLKITKVTFTENEDGTLTATFELEDGYRVTIKFNKKTNKVEIKIEPLPSAGGSAGGSAG [r3_438_TrROS_Hall] | 3.74 ± 0.15 | 4.12 ± 0.082 | 2.47 ± 0.091
SAGGKKKKIKPKEIKVRIIIEKDGKKIEIELSEEELEKIKKAPTLEEIIKELEKKGFKIVKIEIEKKSAGGS [r16_567_TrROS_Hall] | 2.43 ± 0.21 | 3.05 ± 0.059 | 1.19 ± 0.073
SAGGVLTRVEIEIVEPGTGVPKRFEALLETGDDGTITLLLPDGTVIELPPTANIKILSEEVLSPSELSAGGS [r16_223_JUSTAS] | 1.37 ± 0.21 | 0.0233 ± 0.17 | 2.02 ± 0.1
SAMKVYEIPIEIPISKYKPSDIIAALKKALDKLNIPFPEEIIKELTIISIKTGGNISTAIKTLLENGLLSAG [r14_364_TrMRF] | 1.56 ± 0.17 | 1.29 ± 0.096 | 1.69 ± 0.12
SAGGKIEEVARELAKELNAVSIDFRTEGDVPSVEIRFRIPGSPLWLRVTITRDPDGNISVSIEPDPRSAGGS [r16_433_TrMRF] | 3.75 ± 0.09 | 4.16 ± 0.074 | 2.94 ± 0.054
SAGGKPNEKVKIKIKNKDGSEETIEIKVDEEVKIKIKFNGEEKEITIKKGETLTITLENAEIEVEKVSAGGS [r16_456_TrROS_Hall] | 1.94 ± 0.31 | 1.83 ± 0.22 | 1.95 ± 0.16
SAGGSAGGGMEPVTETITVPITTPEELEAVKKEAEARREKEGLVSYEISESPDGTVTITITKPVSAGGSAGG [r6_730_JUSTAS] | 0.427 ± 0.34 | 0.334 ± 0.071 | 0.155 ± 0.1
